Results reported in the nanobody polyreactivity screen of Harvey et al. (2022).

Experiment: yeast display, Sf9 membrane polyspecificity reagent, FACS + sequencing; frameworks hold sequencing errors
How it was run: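 A nanobody's polyreactivity label depends on the gate it was sorted from. Yeast display cells were stained with 10% biotinylated, detergent-solubilized Sf9 membrane reagent for 1 hour at 4 °C, enriched on streptavidin microbeads and sorted by FACS. The low and high (top ~1%) gates were set on anti-HA fluorescence for expression and streptavidin fluorescence for reagent binding.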

| Sequence | polyreactivity (PSR sort gate) |
| --- | --- |
| QVQLVESGGGLFQAGGSLRLSCAASGSTLVGNAMGWYRQAPGKERELVATISSSGGSTYYADSVKGRFTISRDNAKNTVYLQMNSLKPEDTGVYYCAARIQWPTWSLYYYWGQGTQVTVSS | high polyreactivity |
| QVQLVESGGGLFQAGGSLRLSCAASGTFVTYMGWYRQEPGQERELVAAIRNGGSTNYADSVKGRFTISRDNAKNTVYLQMNSLKPEDTAVYYCAARVTYSRGYRGGSRTKYDYWGQGTQVTVSS | low polyreactivity |
| QVQLVESGGGLFQAGGSLRLSCAASGTTLVRYAMGWYRQAPGIERELVASISYSGGSTHYADSVKGRFTISRDNAKNTVYLQMNSLKPEDTAVDYWAARPYYSWGGHYYWGQGTQVTVSS | high polyreactivity |
| QVQLVESGGGLFQAGGSLRLSCAATGRTYEGNAMGWSIQAPGKERELVAAITSGGRTNYADSVKGRFSISRDNAKNTVDLQMNSLKPEDTAVYYCAVETRDRSNYFPGQAYDYWGQGTQVTVSS | low polyreactivity |
| QVQLVESGGGLFQAGGSLRLSFAASGIIFPYNLMGWYRQAPGKERELVAAITRGAASTYYADSVKGRFTISRDHEKNTVYLQMNSLKPEDTAVYFCNADGTWRTYNFWGQGTQVTVSS | high polyreactivity |
| QVQLVESGGGLFQAGGSLRLSSAASGFIFWTNVMGWYRQQPGKVRELVAGISKSGGSTYYADSVKGRFTISRDNAKNTVYLQMNCLKPEDTAVYYCAAPRPPAGRYGYWGQGTQVTVSS | high polyreactivity |
| QVQLVESGGGLFQAGGSLRLSSAASGFTFWYYAMGWYRQAPGKERELVASISRTGGTTYYADSVKGRFKISRDIAKNTVYLQMNSLKPEDTAVYYCAARRQARRYWEGDYWCQGTQVTVSS | high polyreactivity |
| QVQLVESGGGLFQAGGSLSLSCAASGFIFYTNAMGWYRQAPGKERELVATITTSGGRTYYADSVKGRFTISRDNAKNTVFLQMNSLKPEDTAVDYCATRYVVIEYDYWGQGTQVTVSS | low polyreactivity |
| QVQLVESGGGLFQEGGSLRLSCAASGYTFKGNAMGWYRQAPGKDWELVAAISRSGASTYYADSVKGRFTISRDNAKNTVYLQMNSLKPEDTAVYYCAAEWYRGGEYRRYDYWGQGTQVTVSS | high polyreactivity |
| QVQLVESGGGLFQPGGILRLSFAASGSTIIDYAMGWYRQEPWKERELVASITWSGGSTYYADSVKGRFTFSRDNAKNTVYLQINCLKPVDSAVYYCNSDVNVGLEVLIVYEYDYWGQGTQVTVSS | low polyreactivity |
| QVQLVESGGGLGQAGASLRLSCAASGLTFRYYALGWYRQAPGKLMELVAAISSRGASTYYADSVKGRITISRDNAKNTVYLQMTSLKPEDTAVYYCAARYTGKYEREYNYWGQGTQVTVSS | high polyreactivity |
| QVQLVESGGGLGQAGASLRLSSAATGFTFRPNAMGWYRQAPGKERELVAAISWRGTRTSYADSVKGRFTISRDNAKNTVYLQMNSLKPEDTAVYSCAARLVRRYDYDYWGQGTQVTVSS | high polyreactivity |
| QVQLVESGGGLGQAGGRLRLSCAASGSIFRRNAMGWYRQAPGKERELVAGISGGGSTYYADSVKGRFTISRDNAKNTVYLQMYSLKPEDTAVYYCATDKHYRWAGFDYWGQGTQVTVSS | low polyreactivity |
| QVQLVESGGGLGQAGGSLRLICAASGRTFLYNAMGWYRQAPGNERELVASITSGGSTNYADSVKGRFTISRDNAKNTVNLQMNSVKPEDTAVYYCAADERRPYWQHSIGSGRPFDYWGQGTQVTVSS | low polyreactivity |
| QVQLVESGGGLGQAGGSLRLSCAASGFTFRTNAMGWYRQAPGKEREFVAAISWSGGRTYYADSVKGRFTISRDNAKNTVYLQMNSLKPEDTAVYYCNADPFHWYYTNMYYWGQGTQVTVSS | high polyreactivity |
| QVQLVESGGGLGQAGGSLRLSCAASGFTFTYNDMGWYRQAPGKEREFVAAISSTGGSTYYADSVKGRFTISRDNAKNTVYLQMNSLKPEDTAVYYCAAEDSWYWDAWFDYWGQGTQVTVSS | low polyreactivity |
| QVQLVESGGGLGQAGGSLRLSCAASGFTFWYYGRGWYRQAPGKERELVAAITSSGGRTSYADSVKGRFTISRDNAKNTVYLQMNSLKPEETADYYCAALYSYYSLYDDYDYWGQGTQVTVSS | high polyreactivity |
| QVQLVESGGGLGQAGGSLRLSCAASGFTFYYNAMGWYRQAPGKERELVATIRGTGSTNYADSVKGRFTISRDNAKNTVYLQMNSLKTEDTAVYYCDAPVDYQGDYWGQGTQVTVSS | low polyreactivity |
| QVQLVESGGGLGQAGGSLRLSCAASGIIFVENAMGWNRQAPGKERELVATITSGDTTNYADSVKGRFTISRDNAKNTVYLQMNSLKPEDTAVYYCKKVVPDDAYIFAYDYWGQGTQVTVSS | low polyreactivity |
| QVQLVESGGGLGQAGGSLRLSCAASGITFSGNAMRWYRQAPGKEREYVAAITWRGENTYYADSVKGRFTISRDTAKNTVSLQMNSLKPVDTAVYYCAAISPLVGLTSYRGPDDSWGQGTQVTVSS | low polyreactivity |
| QVQLVESGGGLGQAGGSLRLSCAASGITFYPNGMGWYRPAPGKEREFVAAITSSGGSTYYADSVKGRFTISRDNAKNTVYLQMNSLKPEDTAVYYCAAQYYPISYYGYGYWGQGTQVTVSS | low polyreactivity |
| QVQLVESGGGLGQAGGSLRLSCAASGLIFNIYARGWYSQAPGKDRELVATIRYSGGSTNYADSVKGRVTISRDNAKNTVNLQMKSLNPEDTAVYYCNAGYYPTGYDYWGQGTQVTVSS | low polyreactivity |
| QVQLVESGGGLGQAGGSLRLSCAASGLIFVRNDMGWYRQAPGKERELVADISDGSTYADSVKGRFTISRDNAKNTVYLQMNSLKPEDTAVYYCNKDNHDVELPVEFEYWGQGTHVTVSS | high polyreactivity |
| QVQLVESGGGLGQAGGSLRLSCAASGRIFYRYVMGWYRPAPGKERELVAAITTSGGRTYYADSVKGRFTISRDNAKNTVYLQLNSLKPEDTAVYDCAAASPTPVYWSGRDYYYWGQGTQVTVSS | high polyreactivity |
| QVQLVESGGGLGQAGGSLRLSCAASGRTFYYYTMGWYRPAPGKERELVAAITHGGSTYYADSVKGRFTISRDNAQNTVYLQMNSLKPEDTAVYSCTAVYHYPYEYWGQGTQVTVSS | high polyreactivity |
| QVQLVESGGGLGQAGGSLRLSCAASGSIFDWYAMGWYRKAPGKEGELVAAISSGDSTYYADSVKGRFTISRDNAKNTFYLQMNSLKPEDTAVYYCAAVTKLSGIRYNYWGQGTQVTVSS | low polyreactivity |
| QVQLVESGGGLGQAGGSLRLSCAASGSIFITYAMGWYRQAPGKERELVAAIRRGGRTNYADSVKGRFTISRDNAKNTVYLQMNSLKPEDTAVYYCAAEFRTGWPYYPDYAYDYWGQGSQVTVSS | low polyreactivity |
| QVQLVESGGGLGQAGGSLRLSCAASGSIFPDYVMGWYRQAPGKARELVAAISRGGSTYYADSVKGRFTISRDNAKNTVYLQMNSLKPEDTAVYYCAADNPHWRYEYWGPGTQVTVSS | high polyreactivity |
| QVQLVESGGGLHQAGGSLRLSCAASGSTYASNARGWYRQAPGKETELVAAITSRDASTYYADSVKGRFTISRDYAKNTVYLQMNRLKPEDTAVYYCATDGYSPAAFDYWGQGTQVTVSS | low polyreactivity |
| QVQLVESGGGLIQAGGSLRLSCAASGSTFANNAMGWYRPAPGKERELVAAISYNGGSTYYADSVKGRFTISRDNAKNTVYLQMNSLKPEDTAVYYCAAYHFRAPSEYDYWGQGTQVTVSS | low polyreactivity |
